Patent publication US20230349919A1

Legend:
[1] = molecular target: IgE (lambda light chain) secreted by U266 cells; experiment: flow cytometry, U266 cells alone with the StAv-FcεRIα capture complex; x axis Secreted IgE, y axis IgM
[2] = molecular target: IgE (lambda light chain) secreted by U266 cells; experiment: flow cytometry, Ramos + U266 mixed 100X1 with the StAv-FcεRIα capture complex; 94.6 % of the cells lie in the IgM+ gate at low secreted IgE
Secreted IgG = experiment: flow cytometry, human bone marrow plasma cells (CD20- CD38++) with NHS-biotin, StAv-anti-human Igk and anti-IgG; controls in FIG. 21B (D00065): without NHS-Biotin 1.2%, without StAv-IgKappa 0.72%, without anti-IgG 0%

Row | % of cells in the secreted IgE+ / IgM- gate [1] | % of cells in the secreted IgE+ / IgM- gate [2] | % IgG+ of plasma cells (Secreted IgG) | Substance
1 | 94.9% | 2.4% |  | secreted IgE capture reagent: streptavidin conjugated to the ectodomain of the high affinity IgE receptor FcεRIα (from UniProt P12319 26-205)
2 |  |  | 5.2% | streptavidin coupled to anti-human Igk (antibody)
